Assay results from PMC6139261 (Archives of biochemistry and biophysics, 2018).
The star is where a group is joined. FITC = O=C1OC2(c3ccc(O)cc3Oc3cc(O)ccc32)c2ccc(NC(=S)*)cc21

Key:
[1] = biological target: substrate-trapping ClpB variant (E279Q/E678Q) (Escherichia coli, UniProt P63284, E279Q/E678Q); type: binding; settings: ClpB with ATP, buffer A, room temperature
[2] = biological target: ATP-hydrolysis deficient substrate-trapping ClpB variant (E279Q/E678Q) (Escherichia coli, UniProt P63284 1-857, E279Q | E678Q); assay: fluorescence polarisation

Row | Molecule | anisotropy change of free label with ClpB [1] | Kd [2]
1 | O=C1OC2(c3ccc(O)cc3Oc3cc(O)ccc32)c2ccccc21 [fluorescein] | did not affect the anisotropy | –
2 | {FITC}-KLFFNLR-NH2 [peptide B2T1] | – | 912 ± 231 nM
3 | {FITC}-QLWQGQFRNLRRKTFFKKLN-NH2 [peptide B2N] | – | 17.5 ± 0.92 nM
4 | {FITC}-QGQFRNLRRKQLWTFFLNKK-NH2 [peptide B2A] | – | 10.2 ± 0.8 nM
5 | {FITC}-AHAWQHQGKTLFISRKTYRI-NH2 [peptide B1] | – | 46.8 ± 1.5 nM
6 | FHAWQHQGKTLAISRKTYRI (FITC on the N-terminus; C-terminal amide) [peptide B1N] | – | 7.26 ± 0.32 nM
7 | {FITC}-QQFRNRRKLTFLKKLGWFNQ-NH2 [peptide B2B] | – | 11.5 ± 0.52 nM
8 | {FITC}-RLGWFNQ-NH2 [peptide B2T2] | – | > 1000 nM
9 | {FITC}-KTLFISR-NH2 [peptide B1T] | – | 329 ± 39 nM
